Source: US20240059789A1 (Janssen / Centocor, published 2024)

Assays:
[1] = biological target: Human PSMA on prostate cancer cell lines (C4-2B, 22RV1) (human, UniProt Q04609 1-750); test: cell-based or functional assay
[2] = biological target: Human CD3 on T cells / Jurkat cells (human, UniProt P07766 23-207); test: cell-based or functional assay
Chain of Human CD3 on T cells / Jurkat cells (P07766 23-207 limits assumed): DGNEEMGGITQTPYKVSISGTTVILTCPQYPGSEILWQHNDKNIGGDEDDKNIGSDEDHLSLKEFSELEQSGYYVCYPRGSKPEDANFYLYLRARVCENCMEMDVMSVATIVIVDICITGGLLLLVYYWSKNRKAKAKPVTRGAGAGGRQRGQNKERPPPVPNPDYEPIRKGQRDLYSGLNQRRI

Chain of Human PSMA on prostate cancer cell lines (C4-2B, 22RV1) (Q04609 whole entry): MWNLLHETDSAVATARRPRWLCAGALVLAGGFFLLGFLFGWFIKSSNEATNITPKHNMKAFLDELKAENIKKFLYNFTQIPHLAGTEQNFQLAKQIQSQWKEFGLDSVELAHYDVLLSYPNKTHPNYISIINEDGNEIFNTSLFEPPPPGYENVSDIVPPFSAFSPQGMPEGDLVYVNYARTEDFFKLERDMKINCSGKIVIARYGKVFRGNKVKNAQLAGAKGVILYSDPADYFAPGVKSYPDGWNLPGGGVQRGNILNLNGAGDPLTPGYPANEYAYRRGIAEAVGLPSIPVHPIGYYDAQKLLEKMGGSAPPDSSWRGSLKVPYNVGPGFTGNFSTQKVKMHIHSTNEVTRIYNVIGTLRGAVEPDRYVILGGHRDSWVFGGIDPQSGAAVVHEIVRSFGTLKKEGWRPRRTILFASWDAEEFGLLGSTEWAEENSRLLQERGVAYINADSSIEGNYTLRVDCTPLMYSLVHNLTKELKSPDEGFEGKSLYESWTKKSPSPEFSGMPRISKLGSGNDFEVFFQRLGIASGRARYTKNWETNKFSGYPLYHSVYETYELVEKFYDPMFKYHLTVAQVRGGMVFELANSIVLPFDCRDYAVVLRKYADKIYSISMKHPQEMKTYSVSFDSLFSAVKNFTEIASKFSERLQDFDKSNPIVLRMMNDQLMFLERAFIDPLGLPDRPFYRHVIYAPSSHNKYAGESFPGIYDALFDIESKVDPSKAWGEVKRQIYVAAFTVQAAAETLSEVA

Binder | Tumor killing EC50 [M] (C4-2B + PAN-T cells, 72 h, flow cytometry) [1] | T cell activation EC50 [M] (CD25+ T cells, C4-2B co-culture, 72 h) [2]
PS3B932 (bispecific antibody, human IgG1, kappa, lambda, L234A L235A) heavy 1: EVQLVESGGGLVKPGGSLRLSCAASGFTFSRYNMNWVRQAPGKGLEWVSSISTSSNYIYYADSVKGRFTFSRDNAKNSLDLQMSGLRAEDTAIYYCTRGWGPFDYWGQGTLVTVSSASTKGPSVFPLAPSSKSTSGGTAALGCLVKDYFPEPVTVSWNSGALTSGVHTFPAVLQSSGLYSLSSVVTVPSSSLGTQTYICNVNHKPSNTKVDKKVEPKSCDKTHTCPPCPAPEAAGGPSVFLFPPKPKDTLMISRTPEVTCVVVSVSHEDPEVKFNWYVDGVEVHNAKTKPREEQYNSTYRVVSVLTVLHQDWLNGKEYKCKVSNKALPAPIEKTISKAKGQPREPQVYTLPPSREEMTKNQVSLTCLVKGFYPSDIAVEWESNGQPENNYKTTPPVLDSDGSFLLYSKLTVDKSRWQQGNVFSCSVMHEALHNHYTQKSLSLSP light 1: DIQMTQSPSSLSASVGDRVTITCRARQSIGTAIHWYQQKPGKAPKLLIKYASESISGVPSRFSGSGSGTDFTLTISSLQPEDFATYYCQQSGSWPYTFGQGTKLEIKRTVAAPSVFIFPPSDEQLKSGTASVVCLLNNFYPREAKVQWKVDNALQSGNSQESVTEQDSKDSTYSLSSTLTLSKADYEKHKVYACEVTHQGLSSPVTKSFNRGEC heavy 2: EVQLVESGGGLVQPGGSLRLSCAASGFTFSSYAMSWVRQAPGKGLEWVSAISGGIGSTYYADSVKGRFTISRDNSKNTLWLQMNSLRAEDTAVYYCAKDGVGATPYYFDYWGQGTLVTVSSASTKGPSVFPLAPSSKSTSGGTAALGCLVKDYFPEPVTVSWNSGALTSGVHTFPAVLQSSGLYSLSSVVTVPSSSLGTQTYICNVNHKPSNTKVDKKVEPKSCDKTHTCPPCPAPEAAGGPSVFLFPPKPKDTLMISRTPEVTCVVVSVSHEDPEVKFNWYVDGVEVHNAKTKPREEQYNSTYRVVSVLTVLHQDWLNGKEYKCKVSNKALPAPIEKTISKAKGQPREPQVYTLPPSREEMTKNQVSLTCLVKGFYPSDIAVEWESNGQPENNYKTTPPVLDSDGSFFLYSRLTVDKSRWQQGNVFSCSVMHEALHNHYTQKSLSLSPG light 2: QSVLTQPPSVSAAPGQKVTISCSGSSSNIGNNYVSWYQQLPGTAPKLLIYDNNKRPSGIPDRFSGSKSGTSATLGITGLQTGDEADYYCGTWDSSLSAYVFGTGTKVTVLGQPKAAPSVTLFPPSSEELQANKATLVCLISDFYPGAVTVAWKADSSPVKAGVETTTPSKQSNNKYAASSYLSLTPEQWKSHRSYSCQVTHEGSTVEKTVAPTECS | 6.42e-12 | 1.2e-11
PS3B925 (bispecific antibody, human IgG1, kappa, lambda, L234A L235A) heavy 1: EVQLVESGGGLVKPGGSLRLSCAASGFTFSRYNMNWVRQAPGKGLEWVSSISTSSNYIYYADSVKGRFTFSRDNAKNSLDLQMSGLRAEDTAIYYCTRGWGPFDYWGQGTLVTVSSASTKGPSVFPLAPSSKSTSGGTAALGCLVKDYFPEPVTVSWNSGALTSGVHTFPAVLQSSGLYSLSSVVTVPSSSLGTQTYICNVNHKPSNTKVDKKVEPKSCDKTHTCPPCPAPEAAGGPSVFLFPPKPKDTLMISRTPEVTCVVVSVSHEDPEVKFNWYVDGVEVHNAKTKPREEQYNSTYRVVSVLTVLHQDWLNGKEYKCKVSNKALPAPIEKTISKAKGQPREPQVYTLPPSREEMTKNQVSLTCLVKGFYPSDIAVEWESNGQPENNYKTTPPVLDSDGSFLLYSKLTVDKSRWQQGNVFSCSVMHEALHNHYTQKSLSLSP light 1: DIQMTQSPSSLSASVGDRVTITCRARQSIGTAIHWYQQKPGKAPKLLIKYASESISGVPSRFSGSGSGTDFTLTISSLQPEDFATYYCQQSGSWPYTFGQGTKLEIKRTVAAPSVFIFPPSDEQLKSGTASVVCLLNNFYPREAKVQWKVDNALQSGNSQESVTEQDSKDSTYSLSSTLTLSKADYEKHKVYACEVTHQGLSSPVTKSFNRGEC heavy 2: EVQLVESGGGLVQPGGSLRLSCTASGFIFSSYAMSWVRQAPGKGLEWVSAISGGYGAPYYADTVKGRFTISRDNSKNTLYLQMNSLRAEDTAVYYCAKDGVGATPYYFDDWGQGILVTVSSASTKGPSVFPLAPSSKSTSGGTAALGCLVKDYFPEPVTVSWNSGALTSGVHTFPAVLQSSGLYSLSSVVTVPSSSLGTQTYICNVNHKPSNTKVDKKVEPKSCDKTHTCPPCPAPEAAGGPSVFLFPPKPKDTLMISRTPEVTCVVVSVSHEDPEVKFNWYVDGVEVHNAKTKPREEQYNSTYRVVSVLTVLHQDWLNGKEYKCKVSNKALPAPIEKTISKAKGQPREPQVYTLPPSREEMTKNQVSLTCLVKGFYPSDIAVEWESNGQPENNYKTTPPVLDSDGSFFLYSRLTVDKSRWQQGNVFSCSVMHEALHNHYTQKSLSLSPG light 2: QSVLTQPPSVSAAPGQKVTISCSGSSSNIGNNYVSWYQQLPGTAPKLLIFDNNKRPSGIPDRFSGSKSGTSATLGITGLQTGDEADYYCGTWDSSLSAYVFGTGTKVTVLGQPKAAPSVTLFPPSSEELQANKATLVCLISDFYPGAVTVAWKADSSPVKAGVETTTPSKQSNNKYAASSYLSLTPEQWKSHRSYSCQVTHEGSTVEKTVAPTECS | 7.98e-12 | 4.59e-12
PS3B934 (bispecific antibody, human IgG1, kappa, lambda, L234A L235A) heavy 1: EVQLVESGGGLVKPGGSLRLSCAASGFTFSRYNMNWVRQAPGKGLEWVSSISTSSNYIYYADSVKGRFTFSRDNAKNSLDLQMSGLRAEDTAIYYCTRGWGPFDYWGQGTLVTVSSASTKGPSVFPLAPSSKSTSGGTAALGCLVKDYFPEPVTVSWNSGALTSGVHTFPAVLQSSGLYSLSSVVTVPSSSLGTQTYICNVNHKPSNTKVDKKVEPKSCDKTHTCPPCPAPEAAGGPSVFLFPPKPKDTLMISRTPEVTCVVVSVSHEDPEVKFNWYVDGVEVHNAKTKPREEQYNSTYRVVSVLTVLHQDWLNGKEYKCKVSNKALPAPIEKTISKAKGQPREPQVYTLPPSREEMTKNQVSLTCLVKGFYPSDIAVEWESNGQPENNYKTTPPVLDSDGSFLLYSKLTVDKSRWQQGNVFSCSVMHEALHNHYTQKSLSLSP light 1: DIQMTQSPSSLSASVGDRVTITCRARQSIGTAIHWYQQKPGKAPKLLIKYASESISGVPSRFSGSGSGTDFTLTISSLQPEDFATYYCQQSGSWPYTFGQGTKLEIKRTVAAPSVFIFPPSDEQLKSGTASVVCLLNNFYPREAKVQWKVDNALQSGNSQESVTEQDSKDSTYSLSSTLTLSKADYEKHKVYACEVTHQGLSSPVTKSFNRGEC heavy 2: EVQLVESGGGLVQPGGSLRLSCAASGFTFSSYAMSWVRQAPGKGLEWVSAISGGIGSTYYADSVKGRFTISRDNSKNTLWLQMNSLRAEDTAVYYCAKDGVGATPYYFDYWGQGTLVTVSSASTKGPSVFPLAPSSKSTSGGTAALGCLVKDYFPEPVTVSWNSGALTSGVHTFPAVLQSSGLYSLSSVVTVPSSSLGTQTYICNVNHKPSNTKVDKKVEPKSCDKTHTCPPCPAPEAAGGPSVFLFPPKPKDTLMISRTPEVTCVVVSVSHEDPEVKFNWYVDGVEVHNAKTKPREEQYNSTYRVVSVLTVLHQDWLNGKEYKCKVSNKALPAPIEKTISKAKGQPREPQVYTLPPSREEMTKNQVSLTCLVKGFYPSDIAVEWESNGQPENNYKTTPPVLDSDGSFFLYSRLTVDKSRWQQGNVFSCSVMHEALHNHYTQKSLSLSPG light 2: QSVLTQPPSVSAAPGQKVTISCSGSSSNIGINYVSWYQQLPGTAPKLLIYDNNKRPSGIPDRFSGSKSGTSATLGITGLQTGDEADYYCGTWDSSLSAVVFGGGTKLTVLGQPKAAPSVTLFPPSSEELQANKATLVCLISDFYPGAVTVAWKADSSPVKAGVETTTPSKQSNNKYAASSYLSLTPEQWKSHRSYSCQVTHEGSTVEKTVAPTECS | 7.24e-12 | 4.81e-12
PS3B933 (bispecific antibody, human IgG1, kappa, lambda, L234A L235A) heavy 1: EVQLVESGGGLVKPGGSLRLSCAASGFTFSRYNMNWVRQAPGKGLEWVSSISTSSNYIYYADSVKGRFTFSRDNAKNSLDLQMSGLRAEDTAIYYCTRGWGPFDYWGQGTLVTVSSASTKGPSVFPLAPSSKSTSGGTAALGCLVKDYFPEPVTVSWNSGALTSGVHTFPAVLQSSGLYSLSSVVTVPSSSLGTQTYICNVNHKPSNTKVDKKVEPKSCDKTHTCPPCPAPEAAGGPSVFLFPPKPKDTLMISRTPEVTCVVVSVSHEDPEVKFNWYVDGVEVHNAKTKPREEQYNSTYRVVSVLTVLHQDWLNGKEYKCKVSNKALPAPIEKTISKAKGQPREPQVYTLPPSREEMTKNQVSLTCLVKGFYPSDIAVEWESNGQPENNYKTTPPVLDSDGSFLLYSKLTVDKSRWQQGNVFSCSVMHEALHNHYTQKSLSLSP light 1: DIQMTQSPSSLSASVGDRVTITCRARQSIGTAIHWYQQKPGKAPKLLIKYASESISGVPSRFSGSGSGTDFTLTISSLQPEDFATYYCQQSGSWPYTFGQGTKLEIKRTVAAPSVFIFPPSDEQLKSGTASVVCLLNNFYPREAKVQWKVDNALQSGNSQESVTEQDSKDSTYSLSSTLTLSKADYEKHKVYACEVTHQGLSSPVTKSFNRGEC heavy 2: EVQLVESGGGLVQPGGSLRLSCAASGFTFSSYAMSWVRQAPGKGLEWVSAISGGSGSTYYADSVKGRFTISRDNSKNTLYLQMNSLRAEDSAVYYCAKDGVGATPYYFDYWGQGTLVTVSSASTKGPSVFPLAPSSKSTSGGTAALGCLVKDYFPEPVTVSWNSGALTSGVHTFPAVLQSSGLYSLSSVVTVPSSSLGTQTYICNVNHKPSNTKVDKKVEPKSCDKTHTCPPCPAPEAAGGPSVFLFPPKPKDTLMISRTPEVTCVVVSVSHEDPEVKFNWYVDGVEVHNAKTKPREEQYNSTYRVVSVLTVLHQDWLNGKEYKCKVSNKALPAPIEKTISKAKGQPREPQVYTLPPSREEMTKNQVSLTCLVKGFYPSDIAVEWESNGQPENNYKTTPPVLDSDGSFFLYSRLTVDKSRWQQGNVFSCSVMHEALHNHYTQKSLSLSPG light 2: QSVLTQPPSVSAAPGQKVTISCSGSSSNIGNNYVSWYQQLPGTAPKLLIYDNNKRPSGIPDRFSGSKSGTSATLGITGLQTGDEADYYCGTWDSSLSAYVFGTGTKVTVLGQPKAAPSVTLFPPSSEELQANKATLVCLISDFYPGAVTVAWKADSSPVKAGVETTTPSKQSNNKYAASSYLSLTPEQWKSHRSYSCQVTHEGSTVEKTVAPTECS | 4.76e-11 | 6.01e-11
